Measurements reported in patent US11781118B2, “Preparation of L-amino acid deaminase mutant and application thereof” (Jiangnan University, priority 2020, dated 2023).

Experiment: Shake flask screening of mutants: whole-cell transformation of L-valine, α-ketoisovaleric acid determined by HPLC
Format: cell-based, E. coli BL21
Settings: transformation temperature 25° C., pH 8.0, 24 h
Experimental: Preparation of sample for determining α-ketoisovaleric acid content by HPLC: 1 mL of a transformed transformation solution is centrifuged at 12000 rpm for 5 min, the supernatant is diluted and filtered through a 0.45 μm filtration membrane, and the filtrate is for liquid chromatography.
Determination of α-ketoisovaleric acid content by HPLC: a waters high performance liquid chromatograph (equipped with a UV-visible detector) and a Bio-Rad Aminex HPX-87H (300×7.8 mm, 9 μm) chromatographic column are used, and the mobile phase is dilute sulfuric acid with the concentration of 2.5 mmol/L. The mobile phase is filtered through a 0.22 μm filtration membrane; the filtrate is subjected to ultrasonic degassing; and detection is performed at the flow rate of 0.6 mL/min, the column temperature of 35° C. and the ultraviolet detection wavelength of 210 nm.
(2) Shake flask screening of single mutants: The obtained 4 mutant strains and a strain containing wild-type L-amino acid deaminase were respectively inoculated into an LB seed medium, and cultured at 200 rpm at 37° C. for about 10 h. The products were respectively inoculated into a shake flask fermentation medium with the inoculum size of 5% of the medium by volume, and cultured at 200 rpm at 37° C. until OD600 was about 0.8. IPTG with the final concentration of 0.04 mmol/L was added for induction, and the induction was performed at 200 rpm at 25° C. for 14 h. The product was centrifuged at 6000 rpm for 8 min to collect bacterial cells. The bacterial cells collected by centrifugation were used for later transformation experiments.
Transformation conditions: transformation temperature 25° C., reaction pH 8.0, and transformation time 24 h.
The yield of α-ketoisovaleric acid of the transformation solution after the completion of the transformation was determined by HPLC. Finally, S98A produced α-ketoisovaleric acid at the highest yield.

Row | Molecule | α-ketoisovaleric acid
1 | PmirLAAD^S98A (protein) MNISRRKLLLGVGAAGVLAGGAALVPMVRRDGKFVEAKSRASFVEGTQGALPKEADVVIIGAGIQGIMTAINLAERGMSVTILEKGQIAGEQSGRAYAQIISYQTSPEIFPLHHYGKILWRGMNEKIGADTSYRTQGRVEALADEKALDKAQAWIKTAKEAAGFDTPLNTRIIKGEELSNRLVGAQTPWTVAAFEEDSGSVDPETGTPALARYAKQIGVKIYTNCAVRGIETAGGKISDVVSEKGAIKTSQVVLAGGIWSRLFMGNMGIDIPTLNVYLSQQRVSGVPGAPRGNVHLPNGIHFREQADGTYAVAPRIFTSSIVKDSFLLGPKFMHLLGGGELPLEFSIGEDLFNSFKMPTSWNLDEKTPFEQFRVATATQNTQHLDAVFQRMKTEFPVFEKSEVVERWGAVVSPTFDELPIISEVKEYPGLVINTATVWGMTEGPAAGEVTADIVMGKKPVIDPTPFSLDRFKK | 46.9 g/L
2 | PmirLAAD^T105A/S106A (protein) MNISRRKLLLGVGAAGVLAGGAALVPMVRRDGKFVEAKSRASFVEGTQGALPKEADVVIIGAGIQGIMTAINLAERGMSVTILEKGQIAGEQSGRAYSQIISYQAAPEIFPLHHYGKILWRGMNEKIGADTSYRTQGRVEALADEKALDKAQAWIKTAKEAAGFDTPLNTRIIKGEELSNRLVGAQTPWTVAAFEEDSGSVDPETGTPALARYAKQIGVKIYTNCAVRGIETAGGKISDVVSEKGAIKTSQVVLAGGIWSRLFMGNMGIDIPTLNVYLSQQRVSGVPGAPRGNVHLPNGIHFREQADGTYAVAPRIFTSSIVKDSFLLGPKFMHLLGGGELPLEFSIGEDLFNSFKMPTSWNLDEKTPFEQFRVATATQNTQHLDAVFQRMKTEFPVFEKSEVVERWGAVVSPTFDELPIISEVKEYPGLVINTATVWGMTEGPAAGEVTADIVMGKKPVIDPTPFSLDRFKK | 49.4 g/L
3 | PmirLAAD^S98A/T105A (protein) MNISRRKLLLGVGAAGVLAGGAALVPMVRRDGKFVEAKSRASFVEGTQGALPKEADVVIIGAGIQGIMTAINLAERGMSVTILEKGQIAGEQSGRAYAQIISYQASPEIFPLHHYGKILWRGMNEKIGADTSYRTQGRVEALADEKALDKAQAWIKTAKEAAGFDTPLNTRIIKGEELSNRLVGAQTPWTVAAFEEDSGSVDPETGTPALARYAKQIGVKIYTNCAVRGIETAGGKISDVVSEKGAIKTSQVVLAGGIWSRLFMGNMGIDIPTLNVYLSQQRVSGVPGAPRGNVHLPNGIHFREQADGTYAVAPRIFTSSIVKDSFLLGPKFMHLLGGGELPLEFSIGEDLFNSFKMPTSWNLDEKTPFEQFRVATATQNTQHLDAVFQRMKTEFPVFEKSEVVERWGAVVSPTFDELPIISEVKEYPGLVINTATVWGMTEGPAAGEVTADIVMGKKPVIDPTPFSLDRFKK | 52.6 g/L
4 | PmirLAAD^T105A/L341A (protein) MNISRRKLLLGVGAAGVLAGGAALVPMVRRDGKFVEAKSRASFVEGTQGALPKEADVVIIGAGIQGIMTAINLAERGMSVTILEKGQIAGEQSGRAYSQIISYQASPEIFPLHHYGKILWRGMNEKIGADTSYRTQGRVEALADEKALDKAQAWIKTAKEAAGFDTPLNTRIIKGEELSNRLVGAQTPWTVAAFEEDSGSVDPETGTPALARYAKQIGVKIYTNCAVRGIETAGGKISDVVSEKGAIKTSQVVLAGGIWSRLFMGNMGIDIPTLNVYLSQQRVSGVPGAPRGNVHLPNGIHFREQADGTYAVAPRIFTSSIVKDSFLLGPKFMHLLGGGEAPLEFSIGEDLFNSFKMPTSWNLDEKTPFEQFRVATATQNTQHLDAVFQRMKTEFPVFEKSEVVERWGAVVSPTFDELPIISEVKEYPGLVINTATVWGMTEGPAAGEVTADIVMGKKPVIDPTPFSLDRFKK | 47.1 g/L
5 | PmirLAAD^L341A (protein) MNISRRKLLLGVGAAGVLAGGAALVPMVRRDGKFVEAKSRASFVEGTQGALPKEADVVIIGAGIQGIMTAINLAERGMSVTILEKGQIAGEQSGRAYSQIISYQTSPEIFPLHHYGKILWRGMNEKIGADTSYRTQGRVEALADEKALDKAQAWIKTAKEAAGFDTPLNTRIIKGEELSNRLVGAQTPWTVAAFEEDSGSVDPETGTPALARYAKQIGVKIYTNCAVRGIETAGGKISDVVSEKGAIKTSQVVLAGGIWSRLFMGNMGIDIPTLNVYLSQQRVSGVPGAPRGNVHLPNGIHFREQADGTYAVAPRIFTSSIVKDSFLLGPKFMHLLGGGEAPLEFSIGEDLFNSFKMPTSWNLDEKTPFEQFRVATATQNTQHLDAVFQRMKTEFPVFEKSEVVERWGAVVSPTFDELPIISEVKEYPGLVINTATVWGMTEGPAAGEVTADIVMGKKPVIDPTPFSLDRFKK | 43.6 g/L
6 | PmirLAAD^S98A/L341A (protein) MNISRRKLLLGVGAAGVLAGGAALVPMVRRDGKFVEAKSRASFVEGTQGALPKEADVVIIGAGIQGIMTAINLAERGMSVTILEKGQIAGEQSGRAYAQIISYQTSPEIFPLHHYGKILWRGMNEKIGADTSYRTQGRVEALADEKALDKAQAWIKTAKEAAGFDTPLNTRIIKGEELSNRLVGAQTPWTVAAFEEDSGSVDPETGTPALARYAKQIGVKIYTNCAVRGIETAGGKISDVVSEKGAIKTSQVVLAGGIWSRLFMGNMGIDIPTLNVYLSQQRVSGVPGAPRGNVHLPNGIHFREQADGTYAVAPRIFTSSIVKDSFLLGPKFMHLLGGGEAPLEFSIGEDLFNSFKMPTSWNLDEKTPFEQFRVATATQNTQHLDAVFQRMKTEFPVFEKSEVVERWGAVVSPTFDELPIISEVKEYPGLVINTATVWGMTEGPAAGEVTADIVMGKKPVIDPTPFSLDRFKK | 51.5 g/L
7 | PmirLAAD^T105A (protein) MNISRRKLLLGVGAAGVLAGGAALVPMVRRDGKFVEAKSRASFVEGTQGALPKEADVVIIGAGIQGIMTAINLAERGMSVTILEKGQIAGEQSGRAYSQIISYQASPEIFPLHHYGKILWRGMNEKIGADTSYRTQGRVEALADEKALDKAQAWIKTAKEAAGFDTPLNTRIIKGEELSNRLVGAQTPWTVAAFEEDSGSVDPETGTPALARYAKQIGVKIYTNCAVRGIETAGGKISDVVSEKGAIKTSQVVLAGGIWSRLFMGNMGIDIPTLNVYLSQQRVSGVPGAPRGNVHLPNGIHFREQADGTYAVAPRIFTSSIVKDSFLLGPKFMHLLGGGELPLEFSIGEDLFNSFKMPTSWNLDEKTPFEQFRVATATQNTQHLDAVFQRMKTEFPVFEKSEVVERWGAVVSPTFDELPIISEVKEYPGLVINTATVWGMTEGPAAGEVTADIVMGKKPVIDPTPFSLDRFKK | 44.6 g/L
8 | PmirLAAD^S98A/S106A (protein) MNISRRKLLLGVGAAGVLAGGAALVPMVRRDGKFVEAKSRASFVEGTQGALPKEADVVIIGAGIQGIMTAINLAERGMSVTILEKGQIAGEQSGRAYAQIISYQTAPEIFPLHHYGKILWRGMNEKIGADTSYRTQGRVEALADEKALDKAQAWIKTAKEAAGFDTPLNTRIIKGEELSNRLVGAQTPWTVAAFEEDSGSVDPETGTPALARYAKQIGVKIYTNCAVRGIETAGGKISDVVSEKGAIKTSQVVLAGGIWSRLFMGNMGIDIPTLNVYLSQQRVSGVPGAPRGNVHLPNGIHFREQADGTYAVAPRIFTSSIVKDSFLLGPKFMHLLGGGELPLEFSIGEDLFNSFKMPTSWNLDEKTPFEQFRVATATQNTQHLDAVFQRMKTEFPVFEKSEVVERWGAVVSPTFDELPIISEVKEYPGLVINTATVWGMTEGPAAGEVTADIVMGKKPVIDPTPFSLDRFKK | 50.9 g/L
9 | PmirLAAD^S106A (protein) MNISRRKLLLGVGAAGVLAGGAALVPMVRRDGKFVEAKSRASFVEGTQGALPKEADVVIIGAGIQGIMTAINLAERGMSVTILEKGQIAGEQSGRAYSQIISYQTAPEIFPLHHYGKILWRGMNEKIGADTSYRTQGRVEALADEKALDKAQAWIKTAKEAAGFDTPLNTRIIKGEELSNRLVGAQTPWTVAAFEEDSGSVDPETGTPALARYAKQIGVKIYTNCAVRGIETAGGKISDVVSEKGAIKTSQVVLAGGIWSRLFMGNMGIDIPTLNVYLSQQRVSGVPGAPRGNVHLPNGIHFREQADGTYAVAPRIFTSSIVKDSFLLGPKFMHLLGGGELPLEFSIGEDLFNSFKMPTSWNLDEKTPFEQFRVATATQNTQHLDAVFQRMKTEFPVFEKSEVVERWGAVVSPTFDELPIISEVKEYPGLVINTATVWGMTEGPAAGEVTADIVMGKKPVIDPTPFSLDRFKK | 44.9 g/L
10 | PmirLAAD^S106A/L341A (protein) MNISRRKLLLGVGAAGVLAGGAALVPMVRRDGKFVEAKSRASFVEGTQGALPKEADVVIIGAGIQGIMTAINLAERGMSVTILEKGQIAGEQSGRAYSQIISYQTAPEIFPLHHYGKILWRGMNEKIGADTSYRTQGRVEALADEKALDKAQAWIKTAKEAAGFDTPLNTRIIKGEELSNRLVGAQTPWTVAAFEEDSGSVDPETGTPALARYAKQIGVKIYTNCAVRGIETAGGKISDVVSEKGAIKTSQVVLAGGIWSRLFMGNMGIDIPTLNVYLSQQRVSGVPGAPRGNVHLPNGIHFREQADGTYAVAPRIFTSSIVKDSFLLGPKFMHLLGGGEAPLEFSIGEDLFNSFKMPTSWNLDEKTPFEQFRVATATQNTQHLDAVFQRMKTEFPVFEKSEVVERWGAVVSPTFDELPIISEVKEYPGLVINTATVWGMTEGPAAGEVTADIVMGKKPVIDPTPFSLDRFKK | 46.5 g/L
